Measured values published in patent US20220017630A1 (JIANGSU SIMCERE PHARMACEUTICAL, published 2022).
Values belong to the binder of their own block, whether it stands above or below them.

Legend:
[1] = biological target: T1, human TNFR2 on the cell surface (CHO-TNFR2 cells; human Treg cells) (human, UniProt P20333 23-461); assay: flow cytometry competition on CHO-TNFR2 cells: antibody first, then human TNFα-biotin, PE-streptavidin; MFI of bound TNFα-biotin [panel #352, table under the plot]
T1 construct: whole, on cells; The assay field of each row says which cells; also called TNFR2-CHO cell; TNFR2 on Treg cells
T1 sequence (looked up): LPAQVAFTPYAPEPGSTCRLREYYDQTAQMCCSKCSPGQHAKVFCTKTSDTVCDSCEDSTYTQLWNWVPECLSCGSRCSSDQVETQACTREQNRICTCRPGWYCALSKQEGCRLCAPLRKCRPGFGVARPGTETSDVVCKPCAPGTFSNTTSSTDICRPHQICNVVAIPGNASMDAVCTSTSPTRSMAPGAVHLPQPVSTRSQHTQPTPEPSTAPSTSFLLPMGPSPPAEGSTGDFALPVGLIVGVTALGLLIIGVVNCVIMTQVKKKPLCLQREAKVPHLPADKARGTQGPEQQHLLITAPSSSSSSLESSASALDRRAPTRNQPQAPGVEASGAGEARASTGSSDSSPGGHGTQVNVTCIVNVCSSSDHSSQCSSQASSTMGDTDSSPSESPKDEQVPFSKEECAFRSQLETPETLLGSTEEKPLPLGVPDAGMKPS
Experimental: (§1) CHO cells that stably overexpressed human TNFR2 were used for experiments. The cells were resuscitated and passaged until in good state, and the expression level of human TNFR2 on the cells was assessed by FACS. Compared to the isotype control, the assay could be carried out when the fold change of mean fluorescence intensity (MFI) was more than 100 times.
(§2) CHO-TNFR2 cells were digested, washed twice with DPBS and stained with Live/Dead (L/D) at room temperature for 20 min, and then seeded at 1×10⁵ cells/50 μl/well. […] The diluted antibodies were added 50 μl/well into wells pre-seeded with cells, and gently blown and mixed to make the final concentrations of the antibodies to 20, 6.67, 2.22, 0.74, 0.247, 0.08, 0.027 and 0 nM, respectively followed by incubation at 4° C. for 30 min. […] After washing twice with the staining buffer, 100 μl/well of PE-streptavidin was added and incubated at 4° C. for 30 min. After additional washing with the staining buffer twice, 150 μl resuspended cells was analyzed using an flow cytometry. Taking the logarithmic value of the antibody concentrations as abscissa and the corresponding MFI value as ordinate, the inhibition curve of the antibody was drawn, and the IC50 value was calculated by four parameters fitting.

[2] = biological target: T1, human TNFR2 on the cell surface …; assay: flow cytometry competition on CHO-TNFR2 cells: antibody first, then human TNFα-biotin, PE-streptavidin; MFI of bound TNFα-biotin [panel #365, table under the plot]
Experimental: as §1, §2

[3] = biological target: T1, human TNFR2 on the cell surface …; assay: flow cytometry competition on CHO-TNFR2 cells: antibody first, then human TNFα-biotin, PE-streptavidin; MFI of bound TNFα-biotin [panel #395, table under the plot]
Experimental: as §1, §2

[4] = biological target: T1, human TNFR2 on the cell surface …; assay: flow cytometry competition on CHO-TNFR2 cells: antibody first, then human TNFα-biotin, PE-streptavidin; MFI of bound TNFα-biotin [panel #309, table under the plot]
Experimental: as §1, §2

[5] = biological target: T1, human TNFR2 on the cell surface …; assay: flow cytometry competition on CHO-TNFR2 cells: antibody first, then human TNFα-biotin, PE-streptavidin; MFI of bound TNFα-biotin [label on D00006), panel #001, table under the plot]
Experimental: as §1, §2

[6] = biological target: T1, human TNFR2 on the cell surface …; assay: flow cytometry competition on CHO-TNFR2 cells: antibody first, then human TNFα-biotin, PE-streptavidin; MFI of bound TNFα-biotin [label on D00006), panel #088, table under the plot]
Experimental: as §1, §2

[7] = biological target: T1, human TNFR2 on the cell surface …; assay: flow cytometry competition on CHO-TNFR2 cells: antibody first, then human TNFα-biotin, PE-streptavidin; MFI of bound TNFα-biotin [label on D00006), panel #133, table under the plot]
Experimental: as §1, §2

[8] = biological target: T1, human TNFR2 on the cell surface …; assay: flow cytometry competition on CHO-TNFR2 cells: antibody first, then human TNFα-biotin, PE-streptavidin; MFI of bound TNFα-biotin [label on D00006), panel #224 (printed twice, bottom left and bottom right), table under the plot]
Experimental: as §1, §2

[9] = biological target: T1, human TNFR2 on the cell surface …; assay: flow cytometry competition on CHO-TNFR2 cells: antibody first, then human TNFα-biotin, PE-streptavidin; MFI of bound TNFα-biotin [panel #226, table under the plot]
Experimental: as §1, §2

B2: TNFR2 antibody #365 (antibody, V domains shown)
VH: EVQLQESGPGLVQPSQSLSITCTVSGFSLTSYGVHWVRQSPGKGLEWLGLIWSDGSPDYSAAFISRLSINKDNSKSQVFFKMNSLQADDTAIYYCARNDDGGDYVMDYWGQGTTVTVSS
VL: EIVLTQSPALMSASPGEKVTMTCSASSSVSYMYWYQQKPRSSPKPWIYLTSNLASGVPARFSGSGSGTSYSLTISSMEAEDAATYYCQQWTSNPLTFGAGTKLEIK
IC50 [2]: 0.041 µg/mL

B5: TNFR2 antibody #001 (antibody, V domains shown)
VH: EVQLQESGGGLVQPGGSLNLSCAASGFAFSTYDLSWVRQTPEKRLEWVAYINNGGISTYYSDTVKGRFTISRDNAKNTLYLQMSSLKSEDTAMYYCVRGPFYGSANYFDYWGQGTTVTVSS
VL: EIVMTQSPASLSLSVGETVTITCRTSESIYSNLPWYQQKQGKSPQLLVYDATKLAEGVPSRFSGSESGTQYSLKINSLQSEDFGTYYCQHFWVTPWTFGGGTKLEIK
notes: also called antibody #1
IC50 [5]: 0.14 µg/mL

B6: TNFR2 antibody #088 (antibody, V domains shown)
VH: EVQLQESGGGLVQPGGSLNLSCAASGFAFSTYDLSWVRQTPGKRLEWVAYINNGGISTYYSDTVKGRFTITRDNAKNTLYLQMSSLKSEDTAMYYCVRGPFYGSANYFDYWGQGTTVTVSS
VL: DILMTQSPASLSLFVGETVTITCRASENIYSNLAWYQQKQGKSPQLLVYDATKLAEGVPSRFSGSESGTQYSLKINSLQSEDFGTYYCQHFWVTPWTFGGGTKLEIK
IC50 [6]: 0.185 µg/mL

B7: TNFR2 antibody #133 (antibody, V domains shown)
VH: EVQLQESGAELVRSGASVKLSCTASGFNIKDYYIQWVKQRPEQGLEWIGWIDPESGNTKYAPKFQDKATMTADTSSNTAYLQLSGLTSEDSAVYYCNAYYDYDGSMDYWGQGTTVTVSS
VL: DIVMTQSPLSLPVSLGDQASISCRSSQSLVHSNGNTYLHWYLQKPGQSPKLLIYKVSNRFSGVPDRFSGSGSGTDFTLKISRVETDDLGVYFCSQSTHVPTWTFGGGTKLEIK
IC50 [7]: 0.04 µg/mL

B8: TNFR2 antibody #224 (antibody, V domains shown)
VH: EVQLQESGPEIVKPGASVKLSCTASGFNNKDIYMHWVKQRPEQGLEWIGRIDPATGNTKHDPKFQDKATLSSDTSSNTAYLQFSSLTSEDTAVYYCAHSPYGDFGAMDYWGQGTTVTVSS
VL: DIQMTQSPAIMSASLGERVTMTCTASSSVSSNYLHWYQQKPGSSPKLWIYSTSNLPSGVPARFSGSGSGTSYSLTISSMEAEDAATYYCHQYHRSPWTFGGGTKLEIK
IC50 [8]: 0.128 µg/mL

More lines, now with the values ahead:

IC50 [1]: 0.056 µg/mL
B1: TNFR2 antibody #352 (antibody, V domains shown)
VH: EVQLQESGPGLVAPSQSLSITCTVSGFSLTSYGVHWVRQPPGKGLEWLVVIWSDGGTTYNSALKSRLSISKDNSKSQVFLKMNSLQTDDTAMYYCARHDDDGYYAMDYWGQGTTVTVSS
VL: DIVLTQSPSLMSASPGEKVTMTCSASSSVGYMYWYQQKPRSSPKPWIYLTSNLASGVPARFSGSGSGTSYSLTISSMEVEDAATYYCQQWSSDPFTFGSGTKLEIK

IC50 [3]: 0.021 µg/mL
B3: TNFR2 antibody #395 (antibody, V domains shown)
VH: EVQLQESGPVLVQPSQSLSITCTVSGFSLTSYSVHWVRQSPGKGLEWLGVIWSDGGTDYSAAFISRLSISKDNSKSQVFFKMNSLQADDTAIYYCARNDDGGDYAMDYWGQGTTVTVSS
VL: EIVLTQSPALMSASPGEKVTMTCSASSSVSYMYWYQQKPRSSPKPWIYLTSNLASGVPARFSGSGSGTSYSLTISSMEAEDAATYYCQQWSSNPLTFGAGTKLEIK

IC50 [4]: 0.116 µg/mL
B4: TNFR2 antibody #309 (antibody, V domains shown)
VH: EVQLQESGAELVKPGASVKLSCKASGYTFTSYWIHWVKLRPGQGFEWIGEINPNNGGTDYNEKFKRKATLTVDKSSSTAYMELSSLTSEDSAIYYCTIDSMITTTWFAYWGQGTTVTVSS
VL: EIVMTQSQKLMSTVVGDRVSVTCKASQNVGTNVAWFQQKPGQSPKALINSASYRYSGVPDRFTGSGSGTDFTLTISSVQSEDLAEYFCQQYNSYPFTFGSGTKLEIK

IC50 [9]: 0.06 µg/mL
B9: TNFR2 antibody #226 (antibody, V domains shown)
VH: EVQLQESGAELVRPGASVKLSCKASGYSFTNYWMNWVKQRPGQGLEWIGMIHPSDSETRLNQKFKDKATLTVDKSSSTAYMQLSSPTSEDSAVYYCARGEGLGAARSVSMDYWGQGTTVTVSS
VL: DIQMTQSPSSLSASLGDRVTISCRASQDISNYLNWYQQKPDGTVKVLIYYTALLHSGVPSRFSGSGSGTDYSLTISNLEQEDIATYFCQQGNTLPWTFGGGTKLEIK
